According to article PMC9478924:

Key:
Assay in all cases: SPR
CHI-1P = molecular target: CHI-1P
[1] = molecular target: EVA-RPU02 (Rhipicephallus pulchellus (zebra tick or yellow back tick))
[2] = molecular target: CHI-1R (not stated | Rhipicephallus pulchellus (zebra tick or yellow back tick))
[3] = molecular target: CHI-PR (not stated | Rhipicephallus pulchellus (zebra tick or yellow back tick))
EVA-P974, A0A023 = molecular target: T1, EVA-P974, A0A023; details: remark: other sources report otherwise
T1 chain: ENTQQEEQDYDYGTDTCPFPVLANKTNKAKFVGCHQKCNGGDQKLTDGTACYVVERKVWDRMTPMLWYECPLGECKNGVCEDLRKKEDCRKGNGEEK

EVA-4, P0C8E9 = molecular target: T2, EVA-4, P0C8E9; details: remark: other sources report otherwise
T2 chain: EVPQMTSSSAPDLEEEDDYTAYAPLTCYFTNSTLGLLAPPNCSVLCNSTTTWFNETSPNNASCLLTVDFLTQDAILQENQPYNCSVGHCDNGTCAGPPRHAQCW

[4] = molecular target: CHI-R1 (Rhipicephallus pulchellus (zebra tick or yellow back tick) | not stated)
CHI-P1 = molecular target: CHI-P1

| Binder | Kd (CHI-1P) [nM] | Kd [1] [nM] | koff [1] [s⁻¹] | kon [1] [M⁻¹ s⁻¹] | Kd [2] [nM] | also measured |
| --- | --- | --- | --- | --- | --- | --- |
| CCL18 (ligand) AQVGTNKELCCLVYTSWQIPQKFIVDYSETSPQCPKPGVILLTKRGRQICADPNKKWVQKYISDLKLNA | 206 | 651 | 0.35 | 490000 | > 500 | Kd [3]: 315 nM |
| CCL16 (ligand) QPKVPEWVNTPSTCCLKYYEKVLPRRLVVGYRKALNCHLPAIIFVTKRNREVCTNPNDDWVQEYIKDPNLPLLPTRNLSTVKIITAKNGQPQLLNSQ | 182 |  |  |  | > 500 |  |
| CCL22 (ligand) GPYGANMEDSVCCRDYVRYRLPLRVVKHFYWTSDSCPRPGVVLLTFRDKEICADPRVPWVKMILNKLSQ | 25 |  |  |  | > 500 |  |
| CCL1 (ligand) KSMQVPFSRCCFSFAEQEIPLRAILCYRNTSSICSNEGLIFKLKRGKEACALDTVGWVQRHRKMLRHCPSKRK | 191 |  |  |  |  |  |
| CCL15 (ligand) QFTNDAETELMMSKLPLENPVVLNSFHFAADCCTSYISQSIPCSLMKSYFETSSECSKPGVIFLTKKGRQVCAKPSGPGVQDCMKKLKPYSI |  | 503 | 0.069 | 140000 |  |  |
| CCL15, Q16663 22-113 (ligand, here or on the partner: biotin on the Avi-tag (Bir-A ligase)) QFTNDAETELMMSKLPLENPVVLNSFHFAADCCTSYISQSIPCSLMKSYFETSSECSKPGVIFLTKKGRQVCAKPSGPGVQDCMKKLKPYSI |  |  |  |  |  | Kd (EVA-P974, A0A023): 299 nM |
| CCL4, P13236 24-92 (ligand, here or on the partner: biotin on the Avi-tag (Bir-A ligase)) APMGSDPPTACCFSYTARKLPRNFVVDYYETSSLCSQPAVVFQTKRSKQVCADPSESWVQEYVYDLELN |  |  |  |  |  | Kd (EVA-4, P0C8E9): 158 nM |
| CCL14 (ligand) TKTESSSRGPYHPSECCFTYTTYKIPRQRIMDYYETNSQCSKPGIVFITKRGHSVCTNPSDKWVQDYIKDMKEN | 149 | 32.4 | 0.024 | 580000 | 60 | Kd [4]: 134 nM; Kd (CHI-P1): 79 nM |
